According to the supplement of paper PMC11316812:
± gives the standard deviation of the averaged measurements.

How the values were obtained:
[1] = tested on: MCF7; assay: percentage of EdU-negative (G0-arrested) nuclei per well, 72 h; higher = more G0 arrest; conditions: reference: sequence is the full UniProt precursor, the tested protein was the secreted form or ectodomain
[2] = tested on: hTERT-HMEC; assay: as above; conditions: reference: sequence is the full UniProt precursor, the tested protein was the secreted form or ectodomain
[3] = protein concentration 0.01477 µM
[4] = protein concentration 0.03125 µM
[5] = protein concentration 0.1477 µM
[6] = protein concentration 0.3125 µM
[7] = protein concentration 0.0225 µM
[8] = protein concentration 0.01425 µM
[9] = protein concentration 0.1425 µM
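Further: secreted proteins added to cultured cells, EdU pulse at the end, nuclei found by Hoechst imaging, EdU status from nuclear versus surrounding ring intensity ratio, PBS as neutral control.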

MAFSGSQAPYLSPAVPFSGTIQGGLQDGLQITVNGTVLSSSGTRFAVNFQTGFSGNDIAFHFNPRFEDGGYVVCNTRQNGSWGPEERKTHMPFQKGMPFDLCFLVQSSDFKVMVNGILFVQYFHRVPFHRVDTISVNGSVQLSYISFQNPRTVPVQPAFSTVPFSQPVCFPPRPRGRRQKPPGVWPANPAPITQTVIHTVQSAPGQMFSTPAIPPMMYPHPAYPMPFITTILGGLYPSKSILLSGTVLPSAQRFHINLCSGNHIAFHLNPRFDENAVVRNTQIDNSWGSEERSLPRKMPFVRGQSFSVWILCEAHCLKVAVDGQHLFEYYHRLRNLPTINRLEVGGDIQLTHVQT
percentage of EdU-negative [1, 3]: 30.2 ± 1.1% | percentage of EdU-negative [1, 4]: 26.3 ± 2.5% | percentage of EdU-negative [1, 5]: 39.3 ± 0.83% | percentage of EdU-negative [1, 6]: 26.3 ± 0.4% | percentage of EdU-negative [2, 3]: 5.5 ± 0.22% | percentage of EdU-negative [2, 4]: 4.97 ± 0.35% | percentage of EdU-negative [2, 5]: 9.26 ± 0.15% | percentage of EdU-negative [2, 6]: 4.66 ± 0.35%

MRARPRPRPLWATVLALGALAGVGVGGPNICTTRGVSSCQQCLAVSPMCAWCSDEALPLGSPRCDLKENLLKDNCAPESIEFPVSEARVLEDRPLSDKGSGDSSQVTQVSPQRIALRLRPDDSKNFSIQVRQVEDYPVDIYYLMDLSYSMKDDLWSIQNLGTKLATQMRKLTSNLRIGFGAFVDKPVSPYMYISPPEALENPCYDMKTTCLPMFGYKHVLTLTDQVTRFNEEVKKQSVSRNRDAPEGGFDAIMQATVCDEKIGWRNDASHLLVFTTDAKTHIALDGRLAGIVQPNDGQCHVGSDNHYSASTTMDYPSLGLMTEKLSQKNINLIFAVTENVVNLYQNYSELIPGTTVGVLSMDSSNVLQLIVDAYGKIRSKVELEVRDLPEELSLSFNATCLNNEVIPGLKSCMGLKIGDTVSFSIEAKVRGCPQEKEKSFTIKPVGFKDSLIVQVTFDCDCACQAQAEPNSHRCNNGNGTFECGVCRCGPGWLGSQCECSEEDYRPSQQDECSPREGQPVCSQRGECLCGQCVCHSSDFGKITGKYCECDDFSCVRYKGEMCSGHGQCSCGDCLCDSDWTGYYCNCTTRTDTCMSSNGLLCSGRGKCECGSCVCIQPGSYGDTCEKCPTCPDACTFKKECVECKKFDRGALHDENTCNRYCRDEIESVKELKDTGKDAVNCTYKNEDDCVVRFQYYEDSSGKSILYVVEEPECPKGPDILVVLLSVMGAILLIGLAALLIWKLLITIHDRKEFAKFEEERARAKWDTANNPLYKEATSTFTNITYRGT
percentage of EdU-negative ([1]; protein concentration 0.009 µM): 26.2 ± 0.6% | percentage of EdU-negative ([1]; protein concentration 0.09 µM): 27.7 ± 1.2% | percentage of EdU-negative ([2]; protein concentration 0.009 µM): 4.78 ± 0.31% | percentage of EdU-negative ([2]; protein concentration 0.09 µM): 16.9 ± 4.2%

MRPTLLWSLLLLLGVFAAAAAAPPDPLSQLPAPQHPKIRLYNAEQVLSWEPVALSNSTRPVVYQVQFKYTDSKWFTADIMSIGVNCTQITATECDFTAASPSAGFPMDFNVTLRLRAELGALHSAWVTMPWFQHYRNVTVGPPENIEVTPGEGSLIIRFSSPFDIADTSTAFFCYYVHYWEKGGIQQVKGPFRSNSISLDNLKPSRVYCLQVQAQLLWNKSNIFRVGHLSNISCYETMADASTELQQVILISVGTFSLLSVLAGACFFLVLKYRGLIKYWFHTPPSIPLQIEEYLKDPTQPILEALDKDSSPKDDVWDSVSIISFPEKEQEDVLQTL
percentage of EdU-negative [1, 4]: 27.1 ± 3% | percentage of EdU-negative [1, 6]: 24.6 ± 0.62% | percentage of EdU-negative [2, 4]: 5.59 ± 1.2% | percentage of EdU-negative [2, 6]: 6.09 ± 0.44%

MKKFFTVAILAGSVLSTAHGSLLNLKAMVEAVTGRSAILSFVGYGCYCGLGGRGQPKDEVDWCCHAHDCCYQELFDQGCHPYVDHYDHTIENNTEIVCSDLNKTECDKQTCMCDKNMVLCLMNQTYREEYRGFLNVYCQGPTPNCSIYEPPPEEVTCSHQSPAPPAPP [Q9BZM2]
percentage of EdU-negative [1, 7]: 24.06 ± 0.22% | percentage of EdU-negative ([1]; protein concentration 0.225 µM): 26 ± 1.2% | percentage of EdU-negative [2, 7]: 5.18 ± 0.43% | percentage of EdU-negative ([2]; protein concentration 0.225 µM): 5.34 ± 1.1%

MQPPRERLVVTGRAGWMGMGRGAGRSALGFWPTLAFLLCSFPAATSPCKILKCNSEFWSATSGSHAPASDDTPEFCAALRSYALCTRRTARTCRGDLAYHSAVHGIEDLMSQHNCSKDGPTSQPRLRTLPPAGDSQERSDSPEICHYEKSFHKHSATPNYTHCGLFGDPHLRTFTDRFQTCKVQGAWPLIDNNYLNVQVTNTPVLPGSAATATSKLTIIFKNFQECVDQKVYQAEMDELPAAFVDGSKNGGDKHGANSLKITEKVSGQHVEIQAKYIGTTIVVRQVGRYLTFAVRMPEEVVNAVEDWDSQGLYLCLRGCPLNQQIDFQAFHTNAEGTGARRLAAASPAPTAPETFPYETAVAKCKEKLPVEDLYYQACVFDLLTTGDVNFTLAAYYALEDVKMLHSNKDKLHLYERTRDLPGRAAAGLPLAPRPLLGALVPLLALLPVFC [Q96B86]
percentage of EdU-negative [1, 7]: 25.3 ± 1.1% | percentage of EdU-negative ([1]; protein concentration 0.225 µM): 26.4 ± 2% | percentage of EdU-negative [2, 7]: 5.15 ± 0.82% | percentage of EdU-negative ([2]; protein concentration 0.225 µM): 6.53 ± 1.7%

MLALLCSCLLLAAGASDAWTGEDSAEPNSDSAEWIRDMYAKVTEIWQEVMQRRDDDGALHAACQVQPSATLDAAQPRVTGVVLFRQLAPRAKLDAFFALEGFPTEPNSSSRAIHVHQFGDLSQGCESTGPHYNPLAVPHPQHPGDFGNFAVRDGSLWRYRAGLAASLAGPHSIVGRAVVVHAGEDDLGRGGNQASVENGNAGRRLACCVVGVCGPGLWERQAREHSERKKRRRESECKAA
percentage of EdU-negative [1, 7]: 23.8 ± 1% | percentage of EdU-negative ([1]; protein concentration 0.225 µM): 27 ± 0.74% | percentage of EdU-negative [2, 7]: 7 ± 3.4% | percentage of EdU-negative ([2]; protein concentration 0.225 µM): 4.98 ± 0.59%

MGLQTTKWPSHGAFFLKSWLIISLGLYSQVSKLLACPSVCRCDRNFVYCNERSLTSVPLGIPEGVTVLYLHNNQINNAGFPAELHNVQSVHTVYLYGNQLDEFPMNLPKNVRVLHLQENNIQTISRAALAQLLKLEELHLDDNSISTVGVEDGAFREAISLKLLFLSKNHLSSVPVGLPVDLQELRVDENRIAVISDMAFQNLTSLERLIVDGNLLTNKGIAEGTFSHLTKLKEFSIVRNSLSHPPPDLPGTHLIRLYLQDNQINHIPLTAFSNLRKLERLDISNNQLRMLTQGVFDNLSNLKQLTARNNPWFCDCSIKWVTEWLKYIPSSLNVRGFMCQGPEQVRGMAVRELNMNLLSCPTTTPGLPLFTPAPSTASPTTQPPTLSIPNPSRSYTPPTPTTSKLPTIPDWDGRERVTPPISERIQLSIHFVNDTSIQVSWLSLFTVMAYKLTWVKMGHSLVGGIVQERIVSGEKQHLSLVNLEPRSTYRICLVPLDAFNYRAVEDTICSEATTHASYLNNGSNTASSHEQTTSHSMGSPFLLAGLIGGAVIFVLVVLLSVFCWHMHKKGRYTSQKWKYNRGRRKDDYCEAGTKKDNSILEMTETSFQIVSLNNDQLLKGDFRLQPIYTPNGGINYTDCHIPNNMRYCNSSVPDLEHCHT
percentage of EdU-negative [1, 8]: 22.9 ± 1.9% | percentage of EdU-negative [1, 9]: 27 ± 0.45% | percentage of EdU-negative [2, 8]: 6.49 ± 1.2% | percentage of EdU-negative [2, 9]: 7.12 ± 0.37%
